Measurements published in patent US12295987B2, “Method of using a GIP/GLP1 co-agonist for diabetes” (Eli Lilly and Company, priority 2018, dated 2025).
Numbered stars: 1 amine (or outer) side, 2 acyl side, 3 side chain; on linkers, the order of the positions; unused ones are H or OH. Square brackets hold non-standard residues; d marks the D form. Side chains are listed from the residue outwards. Ends that are not written are not given here. * marks the point of attachment. C20 diacid = O=C(O)CCCCCCCCCCCCCCCCCCC(=O)*; αMePhe(2-F) = C[C@](N)(Cc1ccccc1F)C(=O)O; γGlu = O=C(O)[C@H](CCC(=O)[*:2])N[*:1]; αMeL = CC(C)C[C@](C)(N)C(=O)O; AEEA = NCCOCCOCC(=O)O; Aib = CC(C)(N)C(=O)O

Molecular target: T1, human gastric inhibitory peptide receptor (hGIPR) (Homo sapiens, UniProt P48546)
T1 construct: expressed in transfected cells; host or cells: HEK293
T1 sequence (P48546 22-466): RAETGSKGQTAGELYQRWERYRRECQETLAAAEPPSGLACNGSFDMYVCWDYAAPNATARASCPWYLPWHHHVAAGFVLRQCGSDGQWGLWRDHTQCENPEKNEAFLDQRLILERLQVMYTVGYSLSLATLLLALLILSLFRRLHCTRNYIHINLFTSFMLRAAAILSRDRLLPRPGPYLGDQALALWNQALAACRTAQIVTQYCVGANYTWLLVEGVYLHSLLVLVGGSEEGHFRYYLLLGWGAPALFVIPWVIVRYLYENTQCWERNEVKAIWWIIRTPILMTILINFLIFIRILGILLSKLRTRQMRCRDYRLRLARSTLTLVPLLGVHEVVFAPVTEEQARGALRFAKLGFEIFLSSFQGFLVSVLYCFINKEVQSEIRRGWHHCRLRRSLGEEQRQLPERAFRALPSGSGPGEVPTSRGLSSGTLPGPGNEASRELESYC
Assay: cAMP pharmacological functional assay in presence of 0.1% casein, hGIPR
Type: cell-based
Conditions: ratio of hGIPR to hGLP1R cAMP EC50 ratios

| Substance | [hGIPR/hGLP1R] EC50 Ratio |
| --- | --- |
| Y-Aib-EGTFTSDYSILLDKIAQ-Aib-AFIEYLIEGGPK((2-[2-(2-Amino-ethoxy)-ethoxy]-acetyl)2-(γGlu)-CO—(CH2)18—CO2H)SGAPPPS-NH2 (Y[Aib]EGTFTSDYSILLDKIAQ[Aib]AFIEYLIEGGPK([AEEA-AEEA-γGlu-C20 diacid])SGAPPPS-NH2; N-terminus assumed; SMILES CC[C@H](C)[C@H](NC(=O)[C@H](CCCCN)NC(=O)[C@H](CC(=O)O)NC(=O)[C@H](CC(C)C)NC(=O)[C@H](CC(C)C)NC(=O)[C@@H](NC(=O)[C@H](CO)NC(=O)[C@H](Cc1ccc(O)cc1)NC(=O)[C@H](CC(=O)O)NC(=O)[C@H](CO)NC(=O)[C@@H](NC(=O)[C@H](Cc1ccccc1)NC(=O)[C@@H](NC(=O)CNC(=O)[C@H](CCC(=O)O)NC(=O)C(C)(C)NC(=O)[C@@H](N)Cc1ccc(O)cc1)[C@@H](C)O)[C@@H](C)O)[C@@H](C)CC)C(=O)N[C@@H](C)C(=O)N[C@@H](CCC(N)=O)C(=O)NC(C)(C)C(=O)N[C@@H](C)C(=O)N[C@@H](Cc1ccccc1)C(=O)N[C@H](C(=O)N[C@@H](CCC(=O)O)C(=O)N[C@@H](Cc1ccc(O)cc1)C(=O)N[C@@H](CC(C)C)C(=O)N[C@H](C(=O)N[C@@H](CCC(=O)O)C(=O)NCC(=O)NCC(=O)N1CCC[C@H]1C(=O)N[C@@H](CCCCNC(=O)COCCOCCNC(=O)COCCOCCNC(=O)CC[C@H](NC(=O)CCCCCCCCCCCCCCCCCCC(=O)O)C(=O)O)C(=O)N[C@@H](CO)C(=O)NCC(=O)N[C@@H](C)C(=O)N1CCC[C@H]1C(=O)N1CCC[C@H]1C(=O)N1CCC[C@H]1C(=O)N[C@@H](CO)C(N)=O)[C@@H](C)CC)[C@@H](C)CC) [Peptide 41] | 10.00 |
| Y-Aib-EGT-αMeF-TSDYSILLDKK((2-[2-(2-Amino-ethoxy)-ethoxy]-acetyl)2-(γGlu)-CO—(CH2)18—CO2H)AQ-Aib-AFIEYLIEGGPSSG-NH2 [Peptide 98] | 6.33 |
| Y-Aib-EGTFTSDY-aMeS-ILLDKK((2-[2-(2-Amino-ethoxy)-ethoxy]-acetyl)2-(γGlu)-CO—(CH2)18—CO2H)AQ-Aib-AFIEYLIEGGPSSGAPPPS-NH2 (YXEGTFTSDYXILLDKKAQXAFIEYLIEGGPSSGAPPPS; Aib, αMeS, lipidated Lys, C-terminal amide; (2)..(2) Xaa at position 2 is Aib; (11)..(11) Xaa at position 11 is alpha-methyl-Ser; MOD_RES (17)..(17) Lys at position 17 is chemically modified by conjugation of the epsilon-amino group of the Lys side chain with (2-[2-(2-amino-ethoxy)-ethoxy]-acetyl)2-(gamma-Glu)-CO-(CH2)18- CO2H; (20)..(20) Xaa at position 20 is Aib; MOD_RES (39)..(39) Ser at position 39 is amidated) [Peptide 68] | 4.72 |
| Y-Aib-EGTFTSDYSI-αMeL-LD-Aib-K((2-[2-(2-Amino-ethoxy)-ethoxy]-acetyl)2-(γGlu)-CO—(CH2)18—CO2H)AQ-Aib-AFIEYLIEGGPSSGAPPPS-NH2 (YXEGTFTSDYSIXLDXKAQXAFIEYLIEGGPSSGAPPPS; Aib, αMeL, lipidated Lys, C-terminal amide; (2)..(2) Xaa at position 2 is Aib; (13)..(13) Xaa at position 13 is alpha-methyl-Leu; (16)..(16) Xaa at position 16 is Aib; MOD_RES (17)..(17) Lys at position 17 is chemically modified by conjugation of the epsilon-amino group of the Lys side chain with (2-[2-(2-amino-ethoxy)-ethoxy]-acetyl)2-(gamma-Glu)-CO-(CH2)18- CO2H; (20)..(20) Xaa at position 20 is Aib; MOD_RES (39)..(39) Ser at position 39) [Peptide 60] | 4.47 |
| Y-Aib-EGT-αMeF-TSDYSI-αMeL-LDEK((2-[2-(2-Amino-ethoxy)-ethoxy]-acetyl)2-(γGlu)-CO—(CH2)18—CO2H)AQ-Aib-AFIEYLIEGGPSSGAPPPS-NH2 (YXEGTXTSDYSIXLDEKAQXAFIEYLIEGGPSSGAPPPS; Aib, αMeF, αMeL; acylated lysine C20 diacid; amide; (2)..(2) Xaa at position 2 is Aib; (6)..(6) Xaa at position 6 is alpha-methyl-Phe; (13)..(13) Xaa at position 13 is alpha-methyl-Leu; MOD_RES (17)..(17) Lys at position 17 is chemically modified by conjugation of the epsilon-amino group of the Lys side chain with (2-[2-(2-amino-ethoxy)-ethoxy]-acetyl)2-(gamma-Glu)-CO-(CH2)18- CO2H; (20)..(20) Xaa at position 20 is Aib; MOD_RES (39)..(39) Ser at po) [Peptide 115] | 2.49 |
| Y-Aib-EGT-αMeF(2F)-TSDASI-αMeL-LD-Orn-K((2-[2-(2-Amino-ethoxy)-ethoxy]-acetyl)2-(γGlu)-CO—(CH2)16—CO2H)AQ-Aib-AFI-(D-Glu)-αMeY-LIEGGPSSGAPPPS-NH2 (YXEGTXTSDASIXLDXKAQXAFIXXLIEGGPSSGAPPPS; Aib, Orn, αMe residues, lipidated Lys, D-Glu, amide; (2)..(2) Xaa at position 2 is Aib; (6)..(6) Xaa at position 6 is alpha-methyl-Phe(2F); (13)..(13) Xaa at position 13 is alpha-methyl-Leu; (16)..(16) Xaa at position 16 is Orn; MOD_RES (17)..(17) Lys at position 17 is chemically modified by conjugation of the epsilon-amino group of the Lys side chain with (2-[2-(2-amino-ethoxy)-ethoxy]-acetyl)2-(gamma-Glu)-CO-(CH2)16- CO2H; (20)..(20) Xaa at positi) [Peptide 246] | 2.48 |
| Y-Aib-EGTFTSDYSILLDKK((2-[2-(2-Amino-ethoxy)-ethoxy]-acetyl)2-(γGlu)-CO—(CH2)18—CO2H)AQ-Aib-AFIEYLIEGGPSSG-NH2 (Y[Aib]EGTFTSDYSILLDKK([AEEA-AEEA-γGlu-C20 diacid])AQ[Aib]AFIEYLIEGGPSSG-NH2; N-terminus assumed; SMILES CC[C@H](C)[C@H](NC(=O)[C@H](CC(C)C)NC(=O)[C@H](Cc1ccc(O)cc1)NC(=O)[C@H](CCC(=O)O)NC(=O)[C@@H](NC(=O)[C@H](Cc1ccccc1)NC(=O)[C@H](C)NC(=O)C(C)(C)NC(=O)[C@H](CCC(N)=O)NC(=O)[C@H](C)NC(=O)[C@H](CCCCNC(=O)COCCOCCNC(=O)COCCOCCNC(=O)CC[C@H](NC(=O)CCCCCCCCCCCCCCCCCCC(=O)O)C(=O)O)NC(=O)[C@H](CCCCN)NC(=O)[C@H](CC(=O)O)NC(=O)[C@H](CC(C)C)NC(=O)[C@H](CC(C)C)NC(=O)[C@@H](NC(=O)[C@H](CO)NC(=O)[C@H](Cc1ccc(O)cc1)NC(=O)[C@H](CC(=O)O)NC(=O)[C@H](CO)NC(=O)[C@@H](NC(=O)[C@H](Cc1ccccc1)NC(=O)[C@@H](NC(=O)CNC(=O)[C@H](CCC(=O)O)NC(=O)C(C)(C)NC(=O)[C@@H](N)Cc1ccc(O)cc1)[C@@H](C)O)[C@@H](C)O)[C@@H](C)CC)[C@@H](C)CC)C(=O)N[C@@H](CCC(=O)O)C(=O)NCC(=O)NCC(=O)N1CCC[C@H]1C(=O)N[C@@H](CO)C(=O)N[C@@H](CO)C(=O)NCC(N)=O) [Peptide 50] | 2.90 |
| Y-Aib-EGT-αMeF(2F)-TSDHSI-αMeL-LDEK((2-[2-(2-Amino-ethoxy)-ethoxy]-acetyl)2-(γGlu)-CO—(CH2)18—CO2H)AQ-Aib-EFIEYLIEGGPSSGAPPPS-NH2 (Y[Aib]EGT[αMePhe(2-F)]TSDHSI[αMeL]LDEK([AEEA-AEEA-γGlu-C20 diacid])AQ[Aib]EFIEYLIEGGPSSGAPPPS-NH2; N-terminus assumed; SMILES CC[C@H](C)[C@H](NC(=O)[C@H](CC(C)C)NC(=O)[C@H](Cc1ccc(O)cc1)NC(=O)[C@H](CCC(=O)O)NC(=O)[C@@H](NC(=O)[C@H](Cc1ccccc1)NC(=O)[C@H](CCC(=O)O)NC(=O)C(C)(C)NC(=O)[C@H](CCC(N)=O)NC(=O)[C@H](C)NC(=O)[C@H](CCCCNC(=O)COCCOCCNC(=O)COCCOCCNC(=O)CC[C@H](NC(=O)CCCCCCCCCCCCCCCCCCC(=O)O)C(=O)O)NC(=O)[C@H](CCC(=O)O)NC(=O)[C@H](CC(=O)O)NC(=O)[C@H](CC(C)C)NC(=O)[C@](C)(CC(C)C)NC(=O)[C@@H](NC(=O)[C@H](CO)NC(=O)[C@H](Cc1c[nH]cn1)NC(=O)[C@H](CC(=O)O)NC(=O)[C@H](CO)NC(=O)[C@@H](NC(=O)[C@](C)(Cc1ccccc1F)NC(=O)[C@@H](NC(=O)CNC(=O)[C@H](CCC(=O)O)NC(=O)C(C)(C)NC(=O)[C@@H](N)Cc1ccc(O)cc1)[C@@H](C)O)[C@@H](C)O)[C@@H](C)CC)[C@@H](C)CC)C(=O)N[C@@H](CCC(=O)O)C(=O)NCC(=O)NCC(=O)N1CCC[C@H]1C(=O)N[C@@H](CO)C(=O)N[C@@H](CO)C(=O)NCC(=O)N[C@@H](C)C(=O)N1CCC[C@H]1C(=O)N1CCC[C@H]1C(=O)N1CCC[C@H]1C(=O)N[C@@H](CO)C(N)=O) [Peptide 154] | 4.80 |
